For test [1], the target named is T1, 精製連鎖球菌抗原(SA)I/II (Streptococcus mutans, UniProt P23504 39-1532).
T1 construct: Purified antigen; also called 固定化精製連鎖球菌抗原
T1 sequence (looked up): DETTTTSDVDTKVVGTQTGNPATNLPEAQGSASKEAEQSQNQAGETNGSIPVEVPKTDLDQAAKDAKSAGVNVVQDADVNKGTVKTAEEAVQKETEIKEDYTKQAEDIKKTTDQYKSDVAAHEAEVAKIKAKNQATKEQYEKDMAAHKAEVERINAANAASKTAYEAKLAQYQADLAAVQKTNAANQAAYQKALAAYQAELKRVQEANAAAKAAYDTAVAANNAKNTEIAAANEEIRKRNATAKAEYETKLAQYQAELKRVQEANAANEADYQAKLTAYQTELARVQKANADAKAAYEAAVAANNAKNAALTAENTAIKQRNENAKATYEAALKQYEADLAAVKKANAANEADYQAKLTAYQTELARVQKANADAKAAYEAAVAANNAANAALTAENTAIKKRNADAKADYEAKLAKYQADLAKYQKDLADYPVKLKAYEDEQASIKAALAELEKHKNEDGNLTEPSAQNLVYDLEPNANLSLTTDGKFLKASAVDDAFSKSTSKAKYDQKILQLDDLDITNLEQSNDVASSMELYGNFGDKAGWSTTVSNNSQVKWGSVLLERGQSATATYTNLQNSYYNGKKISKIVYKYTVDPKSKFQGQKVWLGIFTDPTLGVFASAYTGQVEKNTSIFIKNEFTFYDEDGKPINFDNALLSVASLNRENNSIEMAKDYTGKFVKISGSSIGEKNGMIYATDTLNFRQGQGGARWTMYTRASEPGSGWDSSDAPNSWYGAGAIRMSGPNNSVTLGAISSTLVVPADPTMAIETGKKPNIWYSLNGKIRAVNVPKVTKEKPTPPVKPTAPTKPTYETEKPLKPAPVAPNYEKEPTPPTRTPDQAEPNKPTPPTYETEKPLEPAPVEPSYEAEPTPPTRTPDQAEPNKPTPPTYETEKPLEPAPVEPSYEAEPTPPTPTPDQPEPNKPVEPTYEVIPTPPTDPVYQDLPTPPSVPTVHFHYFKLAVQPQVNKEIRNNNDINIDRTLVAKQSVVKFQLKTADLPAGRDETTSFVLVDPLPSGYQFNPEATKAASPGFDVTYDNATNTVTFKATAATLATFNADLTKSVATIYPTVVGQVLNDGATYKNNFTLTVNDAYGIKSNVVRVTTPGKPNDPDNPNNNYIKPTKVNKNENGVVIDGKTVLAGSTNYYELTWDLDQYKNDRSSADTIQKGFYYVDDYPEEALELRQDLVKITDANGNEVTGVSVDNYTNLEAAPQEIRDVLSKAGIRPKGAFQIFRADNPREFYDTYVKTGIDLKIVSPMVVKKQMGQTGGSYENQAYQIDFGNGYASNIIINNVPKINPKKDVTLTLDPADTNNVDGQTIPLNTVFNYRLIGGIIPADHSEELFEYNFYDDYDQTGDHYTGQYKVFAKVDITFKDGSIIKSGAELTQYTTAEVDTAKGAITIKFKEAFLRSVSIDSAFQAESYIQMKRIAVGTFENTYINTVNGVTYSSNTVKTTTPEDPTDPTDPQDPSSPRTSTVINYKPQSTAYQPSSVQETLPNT
In words: competition ELISA on purified SA I/II; competitor 125I-labelled mouse Guy's13. (An ELISA detects its analyte on a solid surface through an enzyme-linked reagent.)

Test [2] has as its target T1, 精製連鎖球菌抗原(SA)I/II. In words: ELISA on SA I/II, plant extracts.

“植物G13 (本来のガンマ重鎖のGuy's13IgG、タバコで発現) (antibody)” yielded a 標識マウスGuy's13の阻害% in the test with 精製連鎖球菌抗原(SA)I/II [1] of under 85%.
Same read-out and setting: as for “植物G1/A (Guy's13可変領域−(IgG1 CH1)−(IgA CH2)−(IgA CH3) ハイブリッド重鎖とカッパ鎖) (from UniProt P01878 101-344) (antibody)”, the figure is under 85%.
Still for that read-out and setting: as for “植物G2/A (var−γ1−γ2−α2−α3ドメインを含むIgG/IgAハイブリッド重鎖のGuy's13) (from UniProt P01878 101-344) (antibody)”, the figure is under 85%.

B1: マウスJ鎖 (J鎖のみを発現する植物) (other, mouse, UniProt P01592 22-159, looked up)
chain: GDDEATILADNKCMCTRVTSRIIPSTEDPNEDIVERNIRIVVPLNNRENISDPTSPLRRNFVYHLSDVCKKCDPVEVELEDQVVTATQSNICNEDDGVPETCYMYDRNKCYTTMVPLRYHGETKMVQAALTPDSCYPD
notes: Tested as extract of tobacco plants that express J chain only, or by co-expression
Take B1: the binding result in the test with 精製連鎖球菌抗原(SA)I/II [2] is recorded as “no binding”.
